Changes are numbered by the printed parent chain. “Also recorded” adds a separate entry of the source.
B1: rh-ApoA1 3MV: rh-ApoA1 with the three internal methionines converted to valines (protein, UniProt P02647 25-267, looked up, variant M86V M112V M148V)
Apolipoprotein A-I: DEPPQSPWDRVKDLATVYVDVLKDSGRDYVSQFEGSALGKQLNLKLLDNWDSVTSTFSKLREQLGPVTQEFWDNLEKETEGLRQEVSKDLEEVKAKVQPYLDDFQKKWQEEVELYRQKVEPLRAELQEGARQKLHELQEKLSPLGEEVRDRARAHVDALRTHLAPYSDELRQRLAARLEALKENGGARLAEYHAKATEHLSTLSEKAKPALEDLRQGLLPVLESFKVSFLSALEEYTKKLNTQ
B2: rh-ApoA1 4WL: rh-ApoA1 with each of the four tryptophan residues altered to leucine (protein, UniProt P02647 25-267, looked up, variant W8L W50L W72L W108L)
Apolipoprotein A-I: B1 Apolipoprotein A-I with W8L, W50L, W72L, V86M, W108L, V112M, V148M
B3: rh-ApoA1 4WF: rh-ApoA1 with each of the four tryptophan residues altered to phenylalanine (protein, UniProt P02647 25-267, looked up, variant W8F W50F W72F W108F)
Apolipoprotein A-I: B1 Apolipoprotein A-I with W8F, W50F, W72F, V86M, W108F, V112M, V148M

Tests used:
[1] = Alpha helix content by CD (K2d algorithm); type: physicochemical; conditions: for loss of alpha helix content after MPO modification: MPO/H2O2 dose dependent; for alpha helix content: K2d algorithm, unmodified protein
Source text: We examined the role of ApoA1 tryptophan residues next by altering each of the four tryptophan residues to either leucine (rh-ApoA1 4WL) or phenylalanine (rh-ApoA1 4WF). […] Thus, the loss of efflux and lipid binding activity of the 4WL variant cannot be attributed to loss of helical content.

[2] = system: human low density lipoprotein; experiment: Lipid binding activity assay: inhibition of phospholipase C (PLC)-mediated aggregation of LDL; type: biochemical; conditions: for lipid binding activity after MPO modification: PLC mediated LDL aggregation assay, MPO at varying H2O2:ApoA1 mole ratios
Experimental: (§1) MPO at a final concentration of 57 nmol/L, prepared as previously described, was added to ApoA1 at 100 μg/mL (3.5 μmol/L) that had been extensively dialyzed against MPO reaction buffer. The reaction was initiated by adding hydrogen peroxide at varying mole ratios to ApoA1 in 4 aliquots at 15-minute intervals at 37° C., and continuing the incubation for 90 minutes, at which time 2 mmol/L L-methionine was added to quench the reaction. For chemical modification of ApoA1, sodium hypochlorite (NaOCI) was added to 100 μg/mL ApoA1 in MPO buffer at varying concentrations in 4 aliquots at 15 minutes intervals at 37° C. After a total incubation time of 60 minutes, 2 mmol/L L-metbionine was added to quench the reaction.
Lipid binding activity of ApoA1 was assessed via the inhibition of phospholipase C (PLC)-mediated aggregation of human low density lipoprotein, performed as previously described. We have previously shown that this assay give results similar to those observed by the DMPC dispersion clearance assay, but it is more sensitive and requires less ApoA1. The final concentration of apoA1 used in this assay as 12.5 μg/mL. which was sufficient to decrease the initial rate LDL aggregation by ≈75%.

[3] = system: RAW 264.7 murine macrophage cells; experiment: ABCA1-dependent cholesterol efflux assay; type: cell-based; conditions: unoxidised protein/peptide, 4 hr incubation with [3H]cholesterol labeled RAW264.7 cells pretreated with 0.3 mM 8Br-cAMP
Experimental: ApoA1 (filled circles, solid line) and reductively methylated ApoA1 (open circles, dashed line) were subjected to modification by MPO at varying H2O2:ApoA1 mole ratios. These proteins were then assayed for ABCA1 dependent cellular cholesterol acceptor activity during a 4 hr incubation at 5 μg/ml with cholesterol labeled RAW264.7 cells, which had been treated with 0.3 mM 8Br-cAMP to induce ABCA1. Data are means±S.D. of triplicate determinations, when no bars appear, the S.D. is within the symbol.
(§2) RAW 264.7 murine macrophage cells were labeled with [3H] cholesterol and treated with 0.3 mmol/L 8Br-cAMP to induce ABCA1 activity, as previously described. The cells were washed and chased for 4 hours in serum-free medium in the presence of 0.3 mmol/L 8Br-cAMP and the presence or absence of various ApoA1 preparations. The radioactivity in the chase media was determined after brief centrifugation to pellet debris. Radioactivity in the cells was determined by extraction in hexane:isopropanol (3:2) with the solvent evaporated in a scintillation vial prior to counting. The percent cholesterol efflux was calculated as 100×(medium dpm)/(medium dpm+cell dpm).

[4] = system: RAW 264.7 murine macrophage cells; experiment: MPO/H2O2/Cl- modification of ApoA1, then ABCA1-dependent cholesterol efflux assay; type: cell-based; conditions: for ABCA1-dependent cholesterol acceptor activity after MPO modification: MPO/H2O2/Cl- system at varying (increasing) H2O2:ApoA1 mole ratios; for MPO mediated loss of cholesterol acceptor activity, high dose: H2O2:apoAI = 15:1, 3MV with or without the N-terminal methionine; for loss of cholesterol acceptor activity: MPO modification at H2O2:ApoA1 ratio of 1.4
Experimental: as §1, §2

[5] = DMPC emulsion clearance assay (lipid binding); type: biochemical; conditions: 25 μg protein, 125 μg DMPC, absorbance at 325 nm, 24° C.
Experimental: FIGS. 7 (A-B) illustrate plots showing that rh-ApoA1 4WF binds lipid as well as rh-ApoA1 and its lipid binding activity is resistant to MPO mediated oxidation. A. Dimyristoyl phosphatidylcholine (DMPC) emulsions (125 μg) were prepared and incubated without addition (solid thick line) or with the addition of 25 μg rh-ApoA1 (solid thin line) or rh-ApoA1 4WF (dotted line). Lipid binding and solubilization was monitored by loss of turbidity by reading absorbance at 325 nm over time at 24° C. […] B. rh-ApoA1 (filled circles, solid line) and rh-ApoA1 4WF (open circles, dashed line) were subjected to modification by MPO at varying H2O2:ApoA1 mole ratios. These proteins were then assayed for lipid binding activity by prevention of phospholipase C dependent LDL aggregation. Data are normalized to the lipid binding activity of rh-ApoA1 treated in the absence of H2O2. Data are means±S.D. of triplicate determinations. *, p<0.05; and **, p<0.001 vs. rh-ApoA1 4WF at the same H2O2: ApoA1 mole ratio, respectively, by two tailed t-test.

[6] = system: RAW 264.7 murine macrophage cells; experiment: HOCl (sodium hypochlorite) modification of ApoA1, then ABCA1-dependent cholesterol efflux assay; type: cell-based; conditions: increasing doses of HOCl (varying HOCl:ApoA1 mole ratios)
Experimental: as §1, §2

Row | lipid binding activity (DMPC clearance) [5] | lipid binding activity (DMPC clearance) ([5]; listed as 4WF variant) | Molecule | loss of alpha helix content after MPO modification [1] | decrease of the initial rate of LDL aggregation ([2]; apoA1 final concentration 12.5 μg/mL) | ABCA1-dependent cholesterol acceptor activity [3] | ABCA1-dependent cholesterol acceptor activity after MPO modification [4] | alpha helix content [1] [%] | lipid binding activity after MPO modification [2] | MPO mediated loss of cholesterol acceptor activity, high dose [4] | loss of cholesterol acceptor activity [4] | cholesterol acceptor (efflux) activity after HOCl treatment [6] | ABCA1-dependent cholesterol acceptor activity ([3]; listed as 4WL variant) | ABCA1-dependent cholesterol acceptor activity ([3]; listed as 4WF variant)
1 |  |  | ApoA1: human plasma-derived ApoA1 | similarly susceptible | ≈ 75% | robust and equivalent | declined in a similar fashion |  |  |  |  |  |  | 
2 |  |  | methylated ApoA1: ApoA1 subjected to reductive methylation, leading to 92% lysine modification | similarly susceptible |  | robust and equivalent | declined in a similar fashion |  |  |  |  |  |  | 
3 | equivalent activity |  | rh-ApoA1: recombinant human ApoA1, with an additional methionine initiation codon and a 6-his tag at the N-terminus | susceptible to loss of alpha helical content |  | yielded ABCA1 dependent cholesterol acceptor activity | inhibited by increasing MPO induced oxidation | 57 | diminished lipid binding activity | equally susceptible | negligible loss | impaired by increasing doses of HOCl |  | 
4 |  |  | B1 |  |  |  | more sensitive to loss of cholesterol acceptor activity at low molar ratios |  |  | equally susceptible | lost about half of its cholesterol acceptor activity |  |  | 
5 |  |  | B2 |  |  |  |  | 79 |  |  |  |  | lost the majority of this activity | 
6 |  | equivalent activity | B3 | susceptible to loss of alpha helical content |  |  | maintained this activity even at an H2O2:ApoA1 ratio of 15 | 77 | resistant to MPO mediated inhibition; also recorded: did not loose its lipid binding activity |  |  | resistant to this treatment |  | largely retained this activity

Reference: US8536117B2, “Oxidant resistant apolipoprotein A-1 and mimetic peptides” (The Cleveland Clinic Foundation, priority 2007, dated 2013)
